Results: patent US20260250362A1 (published 2026)
Like-named read-outs stand apart in the source and are kept apart here.

Experiments:
[1] = target: T1, recombinant ANDV Gn^H/Gc heterodimer (Andes virus (ANDV)); assay: BLI
[2] = target: PUUV GnH/Gc; assay: BLI
[3] = target: T1, recombinant ANDV Gn^H/Gc heterodimer; assay: BLI; remark: listed apart in the source
[4] = target: PUUV (Puumala virus (PUUV)); assay: ELISA
[5] = target: PUUV GnH/Gc; assay: BLI; remark: listed apart in the source

B1: ADI-42898 Fab (Fab, V domains shown)
VH: QVQLVESGGGVVQPGRSLRLSCAASGFTFSSYAMHWVRQAPGKGLEWVAVTWFDVSKKDYADSVKGRFTISRDNSKNTLYLQMNSLRAEDTAVYYCARNLIRYSGSYFPVHGMDVWGQGTTVTVSS
VL: DIVMTQSPLSLPVTPGEPASISCRSSQSLLHTYGYNSLDWYLQRPGQSPQLLISLGSYRASGVPDRFSGSGSGTDFTLKISRVEAEDVGVYYCMQALHPFTFGGGTKVEIK
[1]
  Kd: 19600 nM
[2]
  Kd: 1.9 nM

B2: ADI-42898 (antibody, V domains shown)
VH: B1 VH
VL: B1 VL
[3]
  Kd: 2.8 nM

B3: IgG (antibody, V domains shown)
VH: B1 VH
VL: B1 VL
[4]
  EC50: < 0.1 nM

B4: ADI-42898 IgG (antibody, V domains shown)
VH: B1 VH
VL: B1 VL
[5]
  Kd: 1.5 nM
